Here are results for 1 protein from ChEMBL document CHEMBL2074192, “Functional analysis and androgen-regulated expression of mouse organic anion transporting polypeptide 1 (Oatp1) in the kidney” (Biochim Biophys Acta, 2001).

Substrate in data set [1]: C[C@]12CC[C@@H]3c4ccc(O)cc4CC[C@H]3[C@@H]1CC[C@@H]2O[C@@H]1O[C@H](C(=O)O)[C@@H](O)[C@H](O)[C@H]1O
Briefly: (§1) TP_TRANSPORTER: uptake in Xenopus laevis oocytes. The data set is classed as functional, cell-based, Oocyte.

Substrate in data set [2]: [H][C@@]12CC=C3C[C@@H](OS(=O)(=O)O)CC[C@]3(C)[C@@]1([H])CC[C@]1(C)C(=O)CC[C@@]21[H]
The description is as §1. The data set is classed as functional, cell-based, Oocyte.

B1: Solute carrier organic anion transporter family member 1A1 (Mus musculus) (protein)
chain: MEETEKKVATQEGRFFSKMKVFLMSLTCAYLAKSLSGVYMNSMLTQIERQFGIPTSVVGFITGSFEIGNLLLIVFVSYFGRKLHRPIIIGVGCVVMGLGCFLMASPHFLMGRYKYETTISPTSNLSSNSFLCIENRTQTLKPTQDPTECVKEIKSLMWIYVLIGNTMRGIGETPIMPLGISYIEDFAKSENSPLYIGILEMGKIVGPIIGLLLGSFFARVYVDIGSVNTDDLTITPTDTRWVGAWWIGFLVCAGVNILTSIPFFFFPKTLPKKELQDNVDVTKYEKVEKHRERAKKENLGITKDFLPFMKSLCCNPIYMLFSLTSVLQINGFASTFTFLPKYLEQQYGKSTSEAVFLIGVYSLPPVCLGYLISGFIMKKFKITVKKAAYIAFGLSLSEYFIFLCNYLLTCDNFPVAGLTTSYKGVQHPLYGEKNVLADCNTRCSCLTDTWDPVCGDNGLAYMSACLAGCEKSVGTGTNMVFQNCSCIGSSGNSSAVLGLCKKGPECDNKLQYFLIKSVFSSFIFSLAAIPGYMVLLRCVKSEEKSIGVGLHAFFIRLLAGIPAPVYFGALIDRTCLHWGTLKCGQPGACRMYDINRFRHIYLGLPAAVRGSSFLPAVFILILMRKFHFPGDIHSPDTELAEMKLTEKESECTDVCRSPKVENDGELKTKL
As a reminder, the Km is the concentration of substrate that gives half-maximal velocity. For B1, the Km in data set [1] and in data set [2] was 8.2 µM in each case.
